Reference: patent publication US20240261333A1 (published 2024)

What was measured:
Assay in all cases: anti-FLAG co-IP from lysate of N-FLAG B3GNT2 cells, mass spectrometry
ATAD3A = molecular target: T1, ATAD3A (human, UniProt Q9NVI7 2-586)
T1 construct: also called NP_001164006.1 (+2)
T1 sequence (looked up): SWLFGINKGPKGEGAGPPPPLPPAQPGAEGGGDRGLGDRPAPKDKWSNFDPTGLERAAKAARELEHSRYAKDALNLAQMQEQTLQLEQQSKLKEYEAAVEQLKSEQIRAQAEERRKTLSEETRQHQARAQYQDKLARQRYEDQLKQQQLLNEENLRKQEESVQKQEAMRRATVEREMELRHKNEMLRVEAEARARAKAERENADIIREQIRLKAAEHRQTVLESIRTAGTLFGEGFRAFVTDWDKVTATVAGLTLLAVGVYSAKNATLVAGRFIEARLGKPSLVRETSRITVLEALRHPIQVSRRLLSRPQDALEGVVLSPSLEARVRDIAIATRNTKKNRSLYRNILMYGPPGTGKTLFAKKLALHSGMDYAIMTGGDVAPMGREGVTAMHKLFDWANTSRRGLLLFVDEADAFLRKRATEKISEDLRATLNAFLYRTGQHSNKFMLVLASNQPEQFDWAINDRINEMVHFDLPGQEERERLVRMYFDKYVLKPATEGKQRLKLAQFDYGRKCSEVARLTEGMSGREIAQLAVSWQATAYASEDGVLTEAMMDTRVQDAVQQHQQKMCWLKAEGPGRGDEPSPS

PDIA4 = molecular target: T2, PDIA4 (human, UniProt P13667 21-645)
T2 construct: also called XP_006716248.1
T2 sequence (looked up): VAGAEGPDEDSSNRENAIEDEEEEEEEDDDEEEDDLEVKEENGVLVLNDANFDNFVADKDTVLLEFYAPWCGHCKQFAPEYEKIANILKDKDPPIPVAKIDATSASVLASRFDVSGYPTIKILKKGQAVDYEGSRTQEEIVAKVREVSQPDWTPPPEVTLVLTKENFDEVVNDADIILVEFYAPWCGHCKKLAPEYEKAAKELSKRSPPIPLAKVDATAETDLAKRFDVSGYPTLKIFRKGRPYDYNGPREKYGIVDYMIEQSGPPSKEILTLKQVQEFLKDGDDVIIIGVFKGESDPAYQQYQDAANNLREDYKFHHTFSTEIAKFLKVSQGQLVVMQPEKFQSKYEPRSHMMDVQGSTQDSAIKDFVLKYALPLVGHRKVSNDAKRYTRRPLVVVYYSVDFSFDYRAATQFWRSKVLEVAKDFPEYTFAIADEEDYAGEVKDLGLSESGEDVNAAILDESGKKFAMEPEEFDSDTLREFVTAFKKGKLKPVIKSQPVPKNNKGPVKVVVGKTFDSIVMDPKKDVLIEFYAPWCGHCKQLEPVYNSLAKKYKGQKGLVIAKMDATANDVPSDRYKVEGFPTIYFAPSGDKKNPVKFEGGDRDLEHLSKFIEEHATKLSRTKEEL

DNAJA3 = molecular target: T3, DNAJA3 (human, UniProt Q96EY1-2 66-453, limits assumed)
T3 construct: also called NP_001128582.1 (+1)
T3 sequence (looked up): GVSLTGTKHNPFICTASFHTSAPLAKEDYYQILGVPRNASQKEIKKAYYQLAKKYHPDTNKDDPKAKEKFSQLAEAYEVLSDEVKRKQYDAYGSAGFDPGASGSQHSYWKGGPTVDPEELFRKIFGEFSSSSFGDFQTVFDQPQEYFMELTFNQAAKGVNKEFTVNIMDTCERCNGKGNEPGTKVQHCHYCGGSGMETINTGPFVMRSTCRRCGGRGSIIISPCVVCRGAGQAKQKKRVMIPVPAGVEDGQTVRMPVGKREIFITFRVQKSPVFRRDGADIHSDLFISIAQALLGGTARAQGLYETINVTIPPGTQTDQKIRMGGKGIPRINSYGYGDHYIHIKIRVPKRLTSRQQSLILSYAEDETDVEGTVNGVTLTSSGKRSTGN

Measured: co-IP mass spectrometry count

B1: N-terminal FLAG tagged B3GNT2 (enzyme, human, UniProt Q9NY97 1-397, looked up)
chain: MSVGRRRIKLLGILMMANVFIYFIMEVSKSSSQEKNGKGEVIIPKEKFWKISTPPEAYWNREQEKLNRQYNPILSMLTNQTGEAGRLSNISHLNYCEPDLRVTSVVTGFNNLPDRFKDFLLYLRCRNYSLLIDQPDKCAKKPFLLLAIKSLTPHFARRQAIRESWGQESNAGNQTVVRVFLLGQTPPEDNHPDLSDMLKFESEKHQDILMWNYRDTFFNLSLKEVLFLRWVSTSCPDTEFVFKGDDDVFVNTHHILNYLNSLSKTKAKDLFIGDVIHNAGPHRDKKLKYYIPEVVYSGLYPPYAGGGGFLYSGHLALRLYHITDQVHLYPIDDVYTGMCLQKLGLVPEKHKGFRTFDIEEKNKNNICSYVDLMLVHSRKPQEMIDIWSQLQSAHLKC
notes: Bait of the co-IP; pulled down from cell lysate with mouse anti-FLAG antibody; also called N-FLAG B3GNT2; N-term FLAG; not shown: N-terminal FLAG tag
0: all assays above
